T1: DGI-2 polypeptide (UniProt Q15004 1-111, limits assumed)
T1 construct: Soluble recombinant protein coated at 500 ng/well; vector tag of pIVEX2.3-MCS not described for this construct; also called KIAA0101
T1 sequence (looked up): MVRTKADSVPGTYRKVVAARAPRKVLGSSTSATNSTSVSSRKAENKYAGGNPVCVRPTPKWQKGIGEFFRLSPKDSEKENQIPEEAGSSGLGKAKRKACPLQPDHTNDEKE

T2: DGI-2 polypeptide (UniProt Q15004 1-111, limits assumed)
T2 construct: Vector-derived residues or tag of pIVEX2.3 are not described for this construct; also called KIAA0101
T2 sequence (looked up): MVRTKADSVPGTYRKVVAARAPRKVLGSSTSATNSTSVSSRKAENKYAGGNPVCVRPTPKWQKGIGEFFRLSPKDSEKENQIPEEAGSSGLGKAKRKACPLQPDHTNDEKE


Tests used:
[1] = biological target: T3, antibody raised against ETAG; experiment: phage ELISA
T3 construct: Coated at 500 ng/well; also called E-tag antibody
Method in brief: (§1)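 Phage from individual clones were bound for 2 h at RT to wells coated with 500 ng DGI-2, LDH (non-specific), anti-E-tag antibody (positive control) or milk (negative control). Bound phage were detected with HRP-anti-M13 and ABTS at A405; positive clones gave ≥2-fold signal over background.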

[2] = biological target: T1, DGI-2 polypeptide; experiment: phage ELISA
Method in brief: as §1

[3] = biological target: T4, lactate dehydrogenase (LDH); experiment: phage ELISA
T4 construct: Coated at 500 ng/well as non-specific target; also called LDH polypeptide
Method in brief: as §1

[4] = biological target: T5, antibody raised against ETAG; experiment: phage ELISA, 405 nm; anti-E-tag antibody coated
T5 construct: read-out of display; also called E-tag antibody; E tag antibody
Method: (§2) For analysis of individual target binders, colonies were picked and phage prepared as described above using helper phage, M13KO7. Ninety-six-well microtiter plates were coated with 500 ng/well of specific target protein, 500 ng/well lactate dehydrogenase (LDH) irrelevant or non-specific target, 500 ng/well of positive control antibody raised against ETAG, and negative control of non-fat milk powder-PBS 2% at 4° C. overnight. Plates were then blocked with 350 microliters/well PBS containing 2% non-fat milk for 1 hr at room temperature. One hundred microliters per well of phage from isolated clones were added and plates were incubated at room temperature for 2 hr after centrifuging samples for 20 minutes at 3500 rpm at 4° C. The phage solution was then removed, and the wells were washed three times with PBS at room temperature. Antibody raised against M13 conjugated to horseradish peroxidase (Pharmacia) was diluted 1:3000 in PBS-Tween and added to each well (100 µl/well). Incubation was for 1 hr at room temperature, followed by washing with PBS-(0.5%) Tween 3 times as described. Color was developed by addition of ABTS solution (100 µl/well; Boehringer, Indianapolis, Ind.). Plates were analyzed at 405 nm. A clone was considered "positive" if the $A405$ of the well was $\geq$2-fold over background.

[5] = biological target: T2, DGI-2 polypeptide; experiment: phage ELISA, 405 nm; DGI-2 coated
Method: as §2

[6] = biological target: T2, DGI-2 polypeptide; experiment: phage ELISA, 405 nm; DGI-2 signal over LDH signal
Method: as §2

Binder | ETAG (OD) [1] [OD] | DGI-2 (OD) [2] [OD] | DGI-2/LDH [2] [ratio] | LDH (OD) [3] [OD] | ETAG (OD) [4] [OD] | DGI-2 (OD) [5] [OD] | DGI-2/LDH (OD) [6] [ratio]
MSSTAWTDRILQRGIGLGPVAAAGAPVPYPDPLEPRP [DGI-2-20R-4-F1212] | 9.8 | 4 | 3.3 | 1.2 |  |  | 
LSHPMSPLRAASQMALTQGVAAAGAPVPYPDPLEPRP (not shown: phage gene III coat protein (pCANTAB5E)) [DGI-2-20R-4-H7] |  |  |  |  | 14.1 | 3.1 | 2.6
SRPGWCSRGTAWGFPGCSSSAAAGAPVPYPDPLEPRP [DGI-2-20R-3-C4] | 19.1 | 4.5 | 4.2 | 1.1 |  |  | 
GSVLERGCLEFSGFCFSLGHAAAGAPVPYPDPLEPRP (not shown: phage gene III coat protein (pCANTAB5E)) [DGI-2-20F-3-C1] |  |  |  |  | 14 | 3.4 | 3.4
GNKCFPPHDLFWDPCDQLQSAAAGAPVPYPDPLEPRP (not shown: phage gene III coat protein (pCANTAB5E)) [DGI-2-20R-4-F6] |  |  |  |  | 13.2 | 2.3 | 2.3
REFFNQASRGAWGYMFREWVEGAAAGAPVPYPDPLEPRP [DGI-2-40F-3-A1] | 9.9 | 4.5 | 5.2 | 0.9 |  |  | 
LTPYSLARSWLSGRPSTGATAAAGAPVPYPDPLEPRP (not shown: phage gene III coat protein (pCANTAB5E)) [DGI-2-20F-3-C12] |  |  |  |  | 15.1 | 3.2 | 3.1
SWRLWVSGELQGDRRKGLRGAAAGAPVPYPDPLEPRP (not shown: phage gene III coat protein (pCANTAB5E)) [DGI-2-20R-3-B7] |  |  |  |  | 11.7 | 3.1 | 3
DGI-2-40F-3-D7 (not shown: phage gene III coat protein (pCANTAB5E)) peptide: ALRSLGSGGFGWQAGRASPQGMTHFPYFGWSGMPTARVRPAAAGAPVPYPDPLEPRP |  |  |  |  | 10.3 | 2.6 | 2.6
MGSLGPFGNINSLASGIGSVRNRPLLPLHGSPAAAGAPVPYPDPLEPRP (not shown: phage gene III coat protein (pCANTAB5E)) [DGI-2-40F-3-D72] |  |  |  |  | 14 | 3.1 | 2.8
DGI-2-40F-3-D12 (not shown: phage gene III coat protein (pCANTAB5E)) peptide: QGSAHVVRPPGVYDVPWKVGMFFHPQNWPNSWGRAYFRSGAAAGAPVPYPDPLEPRP |  |  |  |  | 7.3 | 2.3 | 2.5
DGI-2-40F-3-C6 (not shown: phage gene III coat protein (pCANTAB5E)) peptide: QMFSKGNWLAHPEGGVALGLSRESQLFRSCREFGYCMGPMAAAGAPVPYPDPLEPRP |  |  |  |  | 10.1 | 2.3 | 2.8
TANGHRYGGCGLWCKWMSGMAAAGAPVPYPDPLEPRP (not shown: phage gene III coat protein (pCANTAB5E)) [DGI-2-20R-4-E2] |  |  |  |  | 18.2 | 2.7 | 2.5
LQIVRPAGWKMPGQVGYYIGAAAGAPVPYPDPLEPRP (not shown: phage gene III coat protein (pCANTAB5E)) [DGI-2-20R-3-A9] |  |  |  |  | 14.3 | 3.4 | 3.4
DGI-2-40F-4-F6 (not shown: phage gene III coat protein (pCANTAB5E)) peptide: SYRNFAMQSSLQVRRGSVVEDGTCWWEGVRCYSGAAAGAPVPYPDPLEPRP |  |  |  |  | 13.5 | 3.2 | 3.2
DGI-2-40F-4-E62 (peptide) peptide: TCWHRGLNVVRYSVNFGVRDARLTTQGMAWFPPGCGQGCVAAAGAPVPYPDPLEPRP | 14.8 | 4.6 | 4.5 | 1 |  |  | 
ACSVGTALVFPQRWWYLGRSAAAGAPVPYPDPLEPRP (not shown: phage gene III coat protein (pCANTAB5E)) [DGL-2-20R-3-D6] |  |  |  |  | 12.9 | 2.2 | 2.1
RNWLDKDCVWMGDCGARAGEAAAGAPVPYPDPLEPRP (not shown: phage gene III coat protein (pCANTAB5E)) [DGI-2-20F-4-E3] |  |  |  |  | 16.9 | 3.8 | 4.1
DAGIGWVGSMWFPPGCIGACAAAGAPVPYPDPLEPRP (not shown: phage gene III coat protein (pCANTAB5E)) [DGI-2-20R-4-E82] |  |  |  |  | 19.6 | 3.9 | 3.7
MSTLQGPGHLFQMLRRASLGAAAGAPVPYPDPLEPRP (not shown: phage gene III coat protein (pCANTAB5E)) [DGI-2-20R-4-H12] |  |  |  |  | 10.9 | 3.7 | 2.8
DGI-2-40F-4-F12 (not shown: phage gene III coat protein (pCANTAB5E)) peptide: GLYRRAGDASVGFSRWGRFDCQVYFSVECLLGSSWGGYSAAAGAPVPYPDPLEPRP |  |  |  |  | 8.7 | 2.2 | 2.5
LHFGSVMGWRPPGSLWSRPFGQVHPRSWSGSAAAGAPVPYPDPLEPRP (not shown: phage gene III coat protein (pCANTAB5E)) [DGI-2-40F-3-D11] |  |  |  |  | 10.5 | 3.8 | 2.9
RWSICRGLQYSIPGCAVEDLSDVMAAAAGAPVPYPDPLEPRP (not shown: phage gene III coat protein (pCANTAB5E)) [DGI-2-20C-4-H316] |  |  |  |  | 7.2 | 3.8 | 3.9
GLRACDTYLGFCVGARRIDDAAAGAPVPYPDPLEPRP (not shown: phage gene III coat protein (pCANTAB5E)) [DGI-2-20F-3-B102] |  |  |  |  | 18 | 2.4 | 2.5
TSCQVMFLAGQHLLSRVPRLAAAGAPVPYPDPLEPRP (not shown: phage gene III coat protein (pCANTAB5E)) [DGL-2-20R-3-B6] |  |  |  |  | 11.7 | 2.8 | 2.7
DGI-2-40F-3-D6 (not shown: phage gene III coat protein (pCANTAB5E)) peptide: GLEPVPFQTDKRIAMGWTREWLVNGYGAAHRRDARMQSGHAAAGAPVPYPDPLEPRP |  |  |  |  | 11.4 | 2.5 | 2.6

Reference: patent US7056679 (ANTYRA, dated 2006)
